Assay results published in patent publication US12410253B2, “Compositions comprising anti-NRP2 antibodies” (aTyr Pharma, Inc., priority 2019, dated 2025).
“Also recorded” adds a separate entry of the source.

What was measured:
mouse NRP2 [1] = molecular target: T1, mouse NRP2 (Mus musculus, UniProt O35375); experiment: Epitope mapping: FACS staining of Expi293 cells expressing mouse NRP2 and b1 domain mutants; format: binding
T1 construct: host or cells: Expi293, transient transfection
T1 sequence (O35375 21-926 isoform O35375-4): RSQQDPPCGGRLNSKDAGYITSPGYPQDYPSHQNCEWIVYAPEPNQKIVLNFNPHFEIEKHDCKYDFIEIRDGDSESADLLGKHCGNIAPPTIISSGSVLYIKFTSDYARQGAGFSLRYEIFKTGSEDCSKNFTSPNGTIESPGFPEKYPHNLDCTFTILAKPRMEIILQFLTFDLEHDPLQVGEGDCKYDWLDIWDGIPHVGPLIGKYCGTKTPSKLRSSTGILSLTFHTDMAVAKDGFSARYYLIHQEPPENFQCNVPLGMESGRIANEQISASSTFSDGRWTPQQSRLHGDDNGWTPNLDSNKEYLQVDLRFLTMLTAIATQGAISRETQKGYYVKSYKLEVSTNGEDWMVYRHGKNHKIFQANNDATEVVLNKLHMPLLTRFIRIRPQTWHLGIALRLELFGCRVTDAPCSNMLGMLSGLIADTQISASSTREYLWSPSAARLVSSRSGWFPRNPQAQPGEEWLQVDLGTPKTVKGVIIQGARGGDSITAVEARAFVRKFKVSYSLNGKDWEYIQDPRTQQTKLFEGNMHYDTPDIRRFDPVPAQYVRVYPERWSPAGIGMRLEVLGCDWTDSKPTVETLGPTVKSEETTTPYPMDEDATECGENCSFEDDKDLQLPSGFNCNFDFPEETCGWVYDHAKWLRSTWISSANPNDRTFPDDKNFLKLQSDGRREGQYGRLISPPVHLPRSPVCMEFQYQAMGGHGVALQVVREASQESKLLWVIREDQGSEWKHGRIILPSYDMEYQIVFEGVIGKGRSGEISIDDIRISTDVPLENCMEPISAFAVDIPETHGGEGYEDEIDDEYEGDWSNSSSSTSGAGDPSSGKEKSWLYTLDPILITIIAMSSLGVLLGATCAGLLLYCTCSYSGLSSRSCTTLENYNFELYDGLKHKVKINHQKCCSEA
Protocol: (§1) Human NRP2a (version 2; see Table N1) and mouse NRP2v2 cDNAs were obtained from Origene. […] Human and mouse NRP2, expression vectors, along with expression vectors encoding all 6 mutants were transfected into Expi293 cells at 1 million cells/mL, by standard techniques. Approximately 40 hours post transfection cells were co-stained with aNRP2-10v10, and a species agnostic anti-NRP2 a1 specific binding antibody.

mouse NRP2 [2] = experiment: as above; format: binding; conditions: MFI staining, antibody 10 nM, mutations made in isolation
Protocol: as §1

BT549 = experiment: 3D soft agar colony formation assay, BT549; format: cell-based, human
Protocol: (§2) Anchorage-independent growth is the ability of transformed cells to grow independently of a solid surface, and is a hallmark of carcinogenesis. The soft agar colony formation assay is a well-established method for characterizing this capability in vitro (J Vis Exp. 2014; (92): 51998). Human triple negative breast cancer (TNBC) cell lines MDA-MB-231 (HTB-26™) and BT549 (HTB122™) were obtained from ATCC and employed in this assay.
(§3) MDA-MB-231 was cultured in 1×RPMI media containing 10% FBS and 1% P/S. BT549 was cultured in 1×RPMI media containing 10% FBS, 0.023 U/mL insulin and 1% P/S. Cells were recovered and expanded from frozen stocks for 2-3 passages. The NRP2-high population was sorted out on FACS equipment following cell surface staining by a fluorophore-conjugated anti-NRP2 antibody. […] The chemo drug Cisplatin or 5-FU was added at a final concentration of IC30 or 1/2 IC30, based on a preliminary test that determined their inhibition curves on MDA-MB-231 cells, in combination with the antibodies a-NRP2-10v10 or its isotype control hIgG4 at 100 nM. […] After 6 or 9 days of treatment, the soft agar matrix was dissolved and the formed cell colonies were quantified using CyQuant dye diluted in PBS (provided in the Cell Biolab kit), which produced a fluorescence signal proportional to viable cells.

A549 cells = experiment: A549 NSCLC xenograft in Nu/J mice, combination with 5-FU; format: in vivo; conditions: for tumor growth in combination with 5-FU: 12.5 mg/kg IP BIW plus 5-FU 2.5 mg/kg TIW from day 16, significant on day 51 vs control IgG/5-FU
Protocol: This study aimed to investigate the in vivo anticancer potential of aNRP2-10v10 in combination with fluorouracil (5-FU) in a human xenograft mouse model using A549 cells (NSCLC cancer model).
Treatment Regimen. Twenty (20) Nu/J mice (Jackson Laboratory, female, 6-8 wks old) were used in this study. […] The dosing regimen is shown in Table E7 below; In brief animals received injections of 12.5 mg/kg of aNRP2-10 or IgG control, which were administered to mice intraperitoneally twice a week according to the protocol below (Table E7). Both groups also received 2.5 mg/kg of 5-FU three times a week.
Human A549 cell line was purchased from ATCC.

[3] = tested on: neo-lymphangiogenesis of the cornea; experiment: Corneal alkali-burn injury model of neovascularization (LYVE-1 staining); format: in vivo, mouse; conditions: IP on Day 0, 3, 7 and 10; Day 14; compared to IgG control; p=0.07
Protocol: Study Design & Treatment Regimen. The study consisted of 40 female C57BL/6 mice separated into four groups. Prior to study, animals were randomized into four groups, 10 mice per group. On Day 0, neovascularization (NV) of the cornea was induced from alkali-burn injury in the eyes of animals under anesthesia. Animals were treated intraperitoneally with control IgG (Group 1), aNRP2-28 (Group 2) and Bevacizumab (Group 3) on post-injury Day 0, 3, 7 and 10. During the in-life phase, animals were monitored with daily clinical observations and weekly body weights. Additionally, ocular assessments of injured eyes were scored and photos taken on post-injury Day 7 and Day 14. All animals were euthanized on Day 14. Injured eyes from all animals were removed and dissected. Whole-mounted corneas were fixed, stained with LYVE-1, and analyzed immunohistochemically to examine the efficacy of Test Articles.

MDA-MB-231 = experiment: 3D soft agar colony formation assay, MDA-MB-231; format: cell-based, human
Protocol: as §2, §3

B1: aNRP2-10v10: humanized, affinity matured anti-NRP2 antibody, target domain b1, VEGF-C blocking; VH SEQ ID NO: 49, VL SEQ ID NO: 50 (antibody, V domains shown)
VH: EVQLVQSGAEVKKPGATVKISCKVSGFNIKDYYVHWVQQAPGKGLEWMGRIDVEDDETKYAPKFQGRVTITADTSTDTAYMELSSLRSEDTAVYYCATPIYGAREAWFAYWGQGTLVTVSS
VL: DIQMTQSPSSLSASVGDRVTITCTASSSVSSSYLHWYQQKPGKAPKLLIYRTSNLASGVPSRFSGSGSGTDFTLTISSLQPEDFATYYCHQYYRSPPTFGGGTKVEIK
modifications: Variable heavy chain region; Light chain variable region
For B1, the “binding to mouse NRP2 (wild type)” value (mouse NRP2 [1]) was “binds specifically to the b1 domain of human NRP2, but not mouse NRP2; also recorded: does not cross react with mouse NRP2”, the “binding activity to mouse NRP2 with mutations F299Y, K354N, and L416S” value (mouse NRP2 [2]) was “restored partial, but incomplete, binding activity” and the “binding to mouse NRP2 with mutations 1383V, M400A, and 1407V” value (mouse NRP2 [2]) was “no improvement in binding”. For the same molecule, the “colony formation, soft agar, antibody treatment alone (BT549)” value (BT549; aNRP2-10v10 treatment alone) was “no obvious effect”, the “colony formation by BT549 cells, soft agar” value (BT549; antibody 100 nM in combination with Cisplatin or 5-FU at certain doses, compared to hIgG4 control) was “significantly more pronounced” and the “tumor growth in combination with 5-FU” value (A549 cells) was “enhances activity of the chemotherapeutic drug 5-FU”. For the same molecule, the “tumor growth in combination with 5-FU” value (A549 cells; listed as aNRP2-10) was “performed better than 5-FU with control IgG”, the “toxicity by clinical observations and body weights” value (A549 cells; combination with 5-FU) was “No obvious increased toxicity” and the “neo-lymphangiogenesis, % Lyve-1+ area of cornea” value [3] was “clear trend towards reduced sprouting of lymphatic vessels”. For the same molecule, the “colony formation, soft agar, antibody treatment alone (MDA-MB-231)” value (MDA-MB-231; aNRP2-10v10 treatment alone) was “no obvious effect” and the “colony formation by MDA-MB-231 cells, soft agar” value (MDA-MB-231; antibody 100 nM in combination with Cisplatin or 5-FU (IC30 or 1/2 IC30), compared to hIgG4 control, NRP2-high sorted cells) was “significantly more pronounced; also recorded: significant inhibition of colony formation”.
